Test results published in the RNAGym collection of RNA variant scans (doi:10.1073/pnas.2313332121).

B1: TPR t1 (parent)
chain: GACCAAUCUGCCCUCAGAGCUCGAGAACAUCUUCGGAUGCAGAGGAGGCAGGCUUCGGUGGCGCGAUAGCGCCAACGUCCUCAACCUCCAAUGCAUCCCACCACAUGAUGAUGCCUGAAGAGCCUUGGUUUUUUG

Variants of: B1
Assay: polymerase ribozyme fitness, log enrichment relative to wild type (log ratio); higher = more active; in vitro selection for triplet polymerase activity
In short: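 Genotype fitness is the logarithm of its enrichment divided by wild-type enrichment, using inverse-variance-weighted averages of replicates. That logarithm is base 2. Enrichment was measured by Illumina sequencing of input and output libraries from one triplicate in vitro selection round, with frozen incubation at −7 °C, on PCR-built, transcribed mutant libraries of each subunit of a heterodimeric triplet polymerase ribozyme, retaining genotypes with ≥10 input reads and ≥1 read per output.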

Variant | polymerase ribozyme fitness (log ratio)
A6U C28G G58A A100U | -3.49
A6C U9G G57U G113U G128U | -3.88
A6G U7G A18C G48U C53A G63A C115A U133A | -1.29
A6G C40G U59A A103U | -6.42
A6U A26U C70A G120U | -5.12
A6C G57C C72U | -0.529
A6C G61C U92C | -4.76
A6U A46C C85G G113A G135C | -3.74
A6G C15U C49A C53A G71U U78A | -0.614
A6G C98U | -1.69
A6U A50G C123A G128C | -0.104
A6G G44C U112C | 0.311
A6C U30C G69A | -5.82
A6C G117U U126A U131C | -6.38
A6U A46U C115A | -2.18
A6G G10A | 0.127
A6G C12U G36U G52U C70U U96G A121C | -2.52
A6U C8A U129A | -1.48
A6U A26U C34A A43U A121C | -7.38
A6C C40G A95C | -5.15
A6U C86U C89G | -1.63
A6G A111U | -2.51
A6G A16G G17U A18G G47A G61U | -3.02
A6C U38A C53G | -0.826

Variant | polymerase ribozyme fitness (log ratio)
A6C G71C | -1.18
A6C G42U G63C C79U | -2.06
A6U C13A U21C | -1.41
A6C G10A U33A C49A A121U | -2.86
A6U C12U U81C | -0.545
A6C U133A | -0.897
A6G G71A C101A | -3.04
A6G A41C G57U G60A A100U | -2.82
A6G C13G G51A C79G C88A G93C A108U C115U C124U | -7.39
A6G U30C C73U C124A | -1.64
A6G G39U | -0.397
A6C C56U A83C U112G | -1.14
A6U C15G U59G | -2.42
A6G G48A G52C C85G U112C | -0.453
A6G U14G G58A | -0.642
A6U G45A G52A A75U | -0.0939
A6C U9G G69U A83G A91C G117U | -0.828
A6U C72U U96C G117U | -3.88
A6U G19U A121U | -1.67
A6C C31G C34U G42U G93C A111C | -6.9
A6U C8A A37G G61U C98A | -3.75
A6U C53G | -0.289
A6U C8A G52U C53A C72A U92A C101A U130G | -5.85
A6G G25A C34U G42C G69C U87C C114A C124U | -6.61

Variant | polymerase ribozyme fitness (log ratio)
A6U A26U | -3.54
A6U C56G | -0.948
A6U G45U G52C C72U G122A | -2.56
A6G G77U C82A C104U A121U U130A | 1.36
A6G C34G C56A C70G G120U | -6.8
A6U C8A | 0.618
A6C C40A C53G C99U U109A U112G | -5.56
A6C U78A C79A | -3.63
A6U A84U G110U | -1.45
A6C C85A | -2.67
A6U A26U G36C G63C | -5.14
A6G G52U | -1.27
A6U C11U C124G | 1.11
A6C C40U G60A C73G G107U C124U | -5.46
A6G C8G C11U C22U C79U | -3.56
A6G C22U A43C G45U C94A C124A | -5.87
A6U C8G C13U C20U G51A G61U | -4.27
A6U C12A G61U | 0.0933
A6U A27U G63A A121G U130A | -2.41
A6U G19C C82U C94A A111C | -4.5
A6G C8A U125A | 0.146
A6G U7G A18C G48U C53A G63A C115A | -1.55
A6G A46U U54G | -1.68
A6U G47A C72G A75G | -2.41

Variant | polymerase ribozyme fitness (log ratio)
A6G C12G A46U A50U C56U C73A | -2.15
A6G U14G G58A C70U | -1.12
A6G U112A U125G U129A | -1.7
A6U A26G G52A G71U | -3.21
A6U C53A G63U A100U | -3.98
A6C U9G G69U A83G A91C G117U G135A | 0.71
A6U A46U G110U | -2.57
A6G C72G C89U | -0.661
A6G A90G U112A | 1.69
A6C G48A C82A | -1.56
A6G C72A C79A C102U A118U | -2.3
A6U G23A G69C C115A U126A U131G | -6.34
A6U C15A A37C C40G C80U U96G | -2.51
A6U C12U G110U | -1.97
A6G G60U U78C C104A U109A | -5.54
A6G G51A | -2.27
A6U G36A | -0.596
A6G U96A C102A U129A | -5.24
A6U C49A C53A C79A C85U A111C | -3.36
A6U A84C C86G G93U | -2.38
A6U A16C | -2.44
A6U A43U G63C G113U | -3.4
A6U A50C | 0.0675
A6U C34G U87A G120A | -3.94

Variant | polymerase ribozyme fitness (log ratio)
A6U C70A | -0.922
A6U C22G A26U C104U | -4.49
A6C G61U U78C A100U G120A U131C | 0.181
A6U C15U C31G G51A U54A C73U C115U | -5.8
A6G C70A | -2.41
A6G G63U C124A G128U | -1.92
A6C C80A | -1.52
A6C G10A C13A A75G U125G | -0.518
A6U C12G C72U U78C | -0.414
A6G G45A C72U U109G G120U | -5.05
A6U A37U G60U C82G C85G | -2.29
A6U C53G C82A A83G | -0.829
A6U C20A G61U U125G | -2.23
A6U C94A U96G | -3.1
A6C C56G | -0.703
A6U G10U C13A C22A C49U G63A | -5.88
A6G C12U A43C U54C C56U A66G C72U C73A | -6.56
A6U C15G G61A | -1.82
A6U C40G G51U | -4.16
A6C C76A C79U | -0.8
A6C G35C G57U G58U G60C U81G A111G U125C G135A | -6.83
A6U A68G A75U U92A C123A | -4.87
A6G C79U C88G C104U | -1.13
A6U G10C C12U C49A G69C A90C A91U | -2.98

Variant | polymerase ribozyme fitness (log ratio)
A6G A121U U125G | -0.777
A6G A18U C40G G42U U81C | -4.14
A6U C8G G44U C49A G77U G120C U130G | -2.14
A6C U21A A37G A90G G120U G127U | -0.919
A6G C64U C73U G117C | -2.37
A6G C88U G113U | -2.37
A6G C85U G113A | -2.51
A6G U30C G63A A111U G127C | -5.37
A6C G113U | -3.54
A6G C56G G69A C79A | -5.03
A6C C72A | -1.05
A6C C72U | -0.203
A6U A41G A91G | -2.5
A6G C31A G42U C53U A95U C101U C114U U126A | -5.71
A6U C76U | -0.345
A6U A26C C34G C64G A111U | -7.61
A6C G47A | 0.295
A6G G10A C20A U112G | -1.35
A6C G61U U87A | -0.857
A6G G45C C94U G120A U126G | -5.4
A6C G48U C53U U59G C64U A95G | -3.63
A6C C85G U92A U112G | -6.59
A6U G44A C56U | -0.291
A6C G71C G113U | -4.81

Variant | polymerase ribozyme fitness (log ratio)
A6C G47A C62U C86U U133G | -0.219
A6U A27G C79U A111C | -4.62
A6C G52U C70G A74U G120C | -5.83
A6G C22A G48U G110U | -6.03
A6G C72A | 0.991
A6G C72U | 0.164
A6C G39U | -1.84
A6C G36U G51A U109C C115U | -6.39
A6U C15A C56A A75G A105C | -4.99
A6U C124U | 1.56
A6G G48U U54A G127A | -2.59
A6U C22U G51A | -5.76
A6U G36C A37G A43G | -2.57
A6G U14A C72U C88U G93A | -1.77
A6U A16U A46C C56G | -2.72
A6U C15G U33A G63A G93A G113U | -6.39
A6G C11A U109G A119C C123G U125C | -5.22
A6U A29G G44A C82A | -2.51
A6C U7A A27G U78C G113A | -1.35
A6G G44C C49G | -1.68
A6C G52A C79U U87A | -0.58
A6C C53A G69C G120A | -1.04
A6G U112G C114G A119G U131C | -5.15
